The text below walks through data of the domain aggregation screens of Martell et al. (2025).

The data set is described as follows: soluble fraction after stress (log2 fold change); higher = more stays soluble; pooled small domains, quantitative proteomics. The following applies: stress: 50 degC. The method, boiled down:
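After stress at 50°C, the amount of each protein still soluble was measured. This was done on pooled custom libraries of small protein domains, using high-throughput quantitative proteomics. The figure given is a base-two log fold change and stands for aggregation propensity, with higher values meaning more protein stays in solution.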
As to “HMNPLHYKAAHWVREGLFDDLKSFVELETRINSIFEEKDRGDVFEIFIEGYRSFSKWRALVLRLA”, the “soluble fraction (log2)” value was -0.28.

On to “HMPIEQVEVPNLTNMTREEAESTLTSLNLKAQVHEEANEADEGKVFKQGTNTGEMVDEGSTIEIWVS”, for which the “soluble fraction (log2)” value is -0.478.

On to “HMKKASLSTVEKKLMKQNYSNDTMENRLARVESYMFGTVFSSDDTQTRIDRISSAYNAQKSS”, for which the “soluble fraction (log2)” value came to 0.142.

For the sequence “HMGDADDLTRIKGIGPKLSKTLNELGIYHFRQIAGWQSDEADWVDDYLSFKGRVMREQWIEQAQKFAS”, the “soluble fraction (log2)” value is -0.392.

On to “HMDRSRAEIDLGHVETAIRTLAEGGMVQEYAIGGRSLKRYKMGELLQLKAELENEINMERRKEKMRQ”, for which the “soluble fraction (log2)” value was 0.197.

As for “HMDDGARQLVDQLNRLIANPAVSARIIHGYLILEGRVESEWEKTRTLLLAQVAGLPVIDLITVS”, the “soluble fraction (log2)” value is -1.85.

Turning to “HMFEATGKITGTEVSFRRKPTTDSERILFFDINTEFRVIGINNGWYKGVYQGKTGYVRSDFVEIVGG”, the “soluble fraction (log2)” value was -0.162.

Turning to “HMIHQIPVNVQKIRQIIGINLNENDYLNYLAKLGFVIDEGLIIVPSFRSDVKTQNDLAEEIARV”, the “soluble fraction (log2)” value is -0.444.

Consider “HMSGEMGIIVAKRLPIRSEPDELATRAFVLKAGTRVKIVKHLNGWLEIVHDGKAGYVQDLEVYVRVIG”, for which the “soluble fraction (log2)” value was -0.524.

For the sequence “HMRTIGDSVYEKIKYDIVHLTLKPGEKLSEASLAEKYGISKAPIRVALRKLQEEGLIVIRPQSGSIVSP”, the “soluble fraction (log2)” value is -0.568.

With “HMPLLELPDDFYPAWKPKTIYVQGQRIMLDGVAFEAKWWTQGDNPASGQADPGSSPWRTLTQEEIAKLLE”, the “soluble fraction (log2)” value was -0.901.

Regarding “HMLPFGHTRLEDGTIQEIPEQIALARKVAEMYKAGFPVMQISIKTEGLLTPRQIYGLMNHWGVKR”, the “soluble fraction (log2)” value is -1.24.

Turning to “HMGLNNVSDILRLDFNSFKKKFDKLPSGYKNSVVEQAALMIKSGELDSIKIKDYIEKSMGIELDI”, the “soluble fraction (log2)” value is -0.27.

As for “HMRKDRKVLMERGRHIFNDLLEKEGIVATNQLMTKLLASHHLRNRDELYLMLANDDISLSSKEIKDLS”, the “soluble fraction (log2)” value came to 0.0203.

Take “HMDTIVHFLSDGRRITVRIKRNARKNIILRPMAADAVSATIPPWLGRRQLSAWLSEREDLLLSVLSRAA”: the “soluble fraction (log2)” value was -2.14.

On to “HMTDIDATSIERAVAKRRHFFLSNIQDLTMKMARRLIEKDLGLAPKHLDAAPFKTRITELVDAVIALGD”, for which the “soluble fraction (log2)” value is -0.165.

“HMVNVLKNSTVIDLVKNNLSDALIISLIRRAKVDFSLMTDDVIELSGKGVSPAVIMEMRQAMIRQASEIQN”: the “soluble fraction (log2)” value is -0.145.

In the case of “HMLAGKTYEVQTESGGKWTLVASYNVKSQAIQQAQALLESHKYSGVKVIAESDRKGEEVIFNEQSEVT”, the “soluble fraction (log2)” value is -0.0442.

As for “HMSVKLYPNPTRSVTTFATDVDKWYLYDNQGKLVSEGNTKTIDVTAFPVGIYFVKTIKGNNSTFVKLIV”, the “soluble fraction (log2)” value is -1.4.

As for “HMSSIYVYPNPTANRIYIQADNIKKAELFDLMGRKVRSTNQPQIDISRLSRGNYILQVKTQNNTQSFKIIK”, the “soluble fraction (log2)” value was -0.476.

Regarding “HMGQGAASAPLRELGVDPVSEKQMVLKDGRFGPYVTDGETNASLRKGDEVETITDERASELLQMRRDAGPS”, the “soluble fraction (log2)” value was -0.195.

On to “HMLSTRERMSSLMAQLQVQQFMPFHRLFTISEGRMGVIVTFLAMMELVKENLIKLIQAQEYGPIHVSLG”, for which the “soluble fraction (log2)” value stood at 0.0428.

For the sequence “HMNQSAVMAERMKQTKNRILQTAKEIFLEQGYKRTTIRQIVERSGITSGSIYNIFSSKEEIFSALVDDL”, the “soluble fraction (log2)” value was -2.65.

Regarding “HMIDRPLTLVEDYERFAGELAKITLRFMLDGRKRFNGRLAGFDEDGKIVLETSFGRFAFSFDEIDSARI”, the “soluble fraction (log2)” value is -2.68.

Regarding “HMEVIDQLFKIALTLFDIDKGENNSISQDLVDKVIEQMKTTAPTFIKRELSEDEVKKLRFEIQNHFNV”, the “soluble fraction (log2)” value was -0.221.

As for “HMTVPDVKGMGARDAVFLLETLGFKVRINGIGQVYEQSIDPGKSYSKGEFISLRL”, the “soluble fraction (log2)” value was -0.51.

“HMALPEHIEPFLRGLGQALAEGDSYEDVQERLLRAYPYLDSTEFQTALARVIFISDLWGRLN”: the “soluble fraction (log2)” value is -1.55.

Consider “HMALLSDEERIATVFAARLGGYSHQEIYKLLQDRFGPSLPAAYSEKSVLTDLQTALSQVPSL”, for which the “soluble fraction (log2)” value was -0.208.

As to “HMVYLPSSIKNIPTKYGEMMVANFKMDELQANSKNGWVSMVISERREPSEKGATHYAYVNTY”, the “soluble fraction (log2)” value came to 0.432.

Take “HMTVLSKEEFVAIEQRLLQLLGTAPVDNKILLQQLSGIKKEKAWKVLSFLQAENKIGMDATGRVYL”: the “soluble fraction (log2)” value was -0.439.

As to “HMEEYTVEFVKHKVKRKQTLYTISKLYNVSIDDIIKYNSQIEGFNLSRRMELNIPVKKTLIVKNE”, the “soluble fraction (log2)” value was -1.7.

As for “HMEDDRMLVWFFRKSIQNGAQSEAEGRPIFEGKDYVHIQQPGERDYIEREAHQGDIGRWPRHWQAYQEGR”, the “soluble fraction (log2)” value was -0.329.

Consider “HMDKPGMRLNQFIAHSGISSRREADNLIKAGLVQVNGKIIVEMGFRVMPTDIVKFNNETIAS”, for which the “soluble fraction (log2)” value was -1.46.

For the sequence “HMLSDEDMMELAIIENLQRENLNPIEEARAYESLIDKGFTHTEIADKMGKSRPYISNSIRLLSL”, the “soluble fraction (log2)” value was 0.162.

For “HMQERTVVKGVVVQVSRDEAYVDIGYKQEIPVSKRDLAVPAPDDARDVVKVGDEIDVYIKSLGGDNGG”, the “soluble fraction (log2)” value is -0.00098.

On to “HMEISTEVPLRGGTISEEALEALNRLPGVTASNIDGKSISVDVADNAELRVSDINQVLAVHSPDTRV”, for which the “soluble fraction (log2)” value is 0.209.

Take “HMLHMKAALGELMSIPGMRSELAGTLFDRGYTSLAQLRAATLDDLERVNGLERADARRIHDFLRKS”: the “soluble fraction (log2)” value is -0.0753.

Regarding “HMITPAARLRALKIRLSVDEVAQIVQRLVNGETVYQIGKPDTGGHAKATVGKINALRLAGQLHFL”, the “soluble fraction (log2)” value was -1.28.

For “HMSDIDHIAGRRIRQARLNAGMTLETLASQAGISKALLSKIENSKVSSPLATFSKISKVLGVPLSDLLKE”, the “soluble fraction (log2)” value was -0.056.

In the case of “HMGSNATIKYAIKGDESLVQVAQKFNVTVSELRSWNNISAFENAKTGQELVINVPASKYETYFALANT”, the “soluble fraction (log2)” value amounted to 0.22.

On to “HMNDNFTPDDLNRLARIKDLPQAKKYALELISNKSAKPMKPEKVRWFANQLQKKKSVMDITKMMYDLLLA”, for which the “soluble fraction (log2)” value was -0.0441.

Take “HMVSPFQQQIADKVHNEIIAAKFNYDNATNENERLLAQLQAKKARELANQYGLDMSSYGADTTAERS”: the “soluble fraction (log2)” value worked out at 0.235.

For “HMELLSGTVEKVLTSGVLVKLPGGAIGFIPNSEMGTPRGTNHGKMFPAGTPLQVMVVEVNQDRGRITLSR”, the “soluble fraction (log2)” value is -1.45.

On to “HMTFKDIMENYTISRIENTINSAVVFLDEINAYITIDKTQLPSNLRYDTDSKIMASQIPDDAKIKYFMIYW”, for which the “soluble fraction (log2)” value is -1.99.

Turning to “HMNDENIIIEEIKYFIKSNQIKEQEKLPSERNLSELFTVSRFSLRKALRHLVDTGYLYVKDKSGYYYQGD”, the “soluble fraction (log2)” value was -2.47.

Take “HMTNVYSLIGKRGIVVEDIDWQKGTGQVKIDGELWSVKTNEQINISKGTEVEVENIEGVKVFVKPI”: the “soluble fraction (log2)” value stood at 0.09.

On to “HMIRQETYLLVRKAVGALPVQMRKIIELAMQGKKNAEIAAQLSISEGTVHTLKKTAYKKLRDRLQE”, for which the “soluble fraction (log2)” value is -2.22.

As for “HMVADEGELLAIAREVVAANPKVFEDWKAGKQSAAQWFVGQIMKRTRGRANPQLALKLVTQALEEHAR”, the “soluble fraction (log2)” value came to 0.0775.

Turning to “HMFNGDPTTRESILASARAEIDQYGIIGLRLSAVAEKAQVSVPLIYKYFEDRDGLLAVVLGDW”, the “soluble fraction (log2)” value was -1.27.

Consider “HMRPDDPYLVIGASREMGDEELKRHYRRLVAETHPDRGIARGLPAEAIAIATRRLAAINAAWDAIERERGL”, for which the “soluble fraction (log2)” value was determined as 0.035.

As for “HMTANTLDLTYSQFLENVKNGSVNDVTIRGNNVSGNFSDGRKFKTYAVNDPTLVEKLTKMGVNISAAPL”, the “soluble fraction (log2)” value was found to be 0.267.

With “HMKAGRNTLARQMAILEVLQKDGRALVDDLAARFETTPQTIRKDLSALAEVNQISRFHGGAALVG”, the “soluble fraction (log2)” value was -0.0796.

In the case of “HMKSYAQIAEILSGQQPNTSRKEGSNLAVHADWIDALIAKYGTALRPEEANEVVKKEIGIVFSHVLEN”, the “soluble fraction (log2)” value was -0.0639.

Regarding “HMQVSDVTELRTILEKVITENESVATEFKEGKDAAMNFLVGQGMKATRGAADPALLKEIITGIL”, the “soluble fraction (log2)” value was found to be 0.0889.

Consider “HMVDYIGRRGVMLSTVSEEKMGNAEVVIDGNSYNIYVKSLDGSTIAYHQEILIINKSKDNNYFLVQIY”, for which the “soluble fraction (log2)” value is -2.63.

On to “HMWTKKELWNAIAKLPKKQRTVVMMRIAQNLPYKDISEITGMSIGSAKVNYHHAVNSLKQWLS”, for which the “soluble fraction (log2)” value was -0.59.

With “HMNSILFAITKEGGVVYGGKPVGVNGVRPLVRRLLQSEEMPVILQVDEKADAGLVIRVIDESKLGGASKV”, the “soluble fraction (log2)” value was -0.269.

With “HMDSTTHALALVRTLPRDQAEAVLLRVVADLDYADVAEIMGRSPGAVRVLVHRGLRRLEQELATRRT”, the “soluble fraction (log2)” value was -0.465.

Take “HMDMQMPIMNGLEFLERINLTLDDNFSIIVLTGKIEDKSIEKSFELGINAYLRKPFNIYALLGIVRQN”: the “soluble fraction (log2)” value was -0.0848.

Consider “HMNLGAHVYWRNHRAYGDFREYEDVGGGREALALPGSTWGTKDPRVAQALFAARLTEFQEARVGR”, for which the “soluble fraction (log2)” value was -1.05.

On to “HMQMGLNEAYRVLHVSPDAPWREVQSAYKERMAKSHPDKVSHLGEELQEKAKELTVEINKAYNTIKRYKK”, for which the “soluble fraction (log2)” value came to 0.194.

Turning to “HMPLLKIGAQGHDVRVVQEALQRAGYAIEGVTGIFDEATREAVLAFQRDQQLTESGTVDRATWHALRR”, the “soluble fraction (log2)” value was determined as 0.134.

Regarding “HMFDFLELGQAIQDAREKQRITREELAEELGISARHLQSVEKEGQYPSFRLFIQLVTMFHISVDQYI”, the “soluble fraction (log2)” value is -0.0829.

Take “HMWGQDVLFTIDKKEFKGKLLEQSDKHTTFLPDGQKTPQKIPNRLIKEIHLGSNKIIDFGNDFLI”: the “soluble fraction (log2)” value is -0.179.

Turning to “HMHPTEKNLTSLLADGSFYMNQNKLETAYDTFTKTIELDPSWAEAWNKRATVLYLMGKYELSQADIDQV”, the “soluble fraction (log2)” value was -0.0645.

Take “HMMEERVIEFANVLRRNGVRVSLAENMDAFRALKSLGISDPLLFRHALRATLIKRGSDIQPFEELFDFFFL”: the “soluble fraction (log2)” value was -1.26.

Turning to “HMDPEIADAVNTIKKYLESHYSEVITRKKIEELVHLNQDHINREFKKQTGYTLMEYVQHYRILMAKKMLRV”, the “soluble fraction (log2)” value is -0.243.

Regarding “HMQQRTVEHVDTAVEALALSIGERAGVDLPYMAHLTGKTQEDLIEDLTGVIFPVPGTEPLRYVTADDYLS”, the “soluble fraction (log2)” value turned out to be 0.028.

With “HMGNASQAARRQRIVDAALELLQDRPYDQIQMRDVAEGAGVALGTLYRYFPSKEQLFAHVLVE”, the “soluble fraction (log2)” value was determined as 0.027.
